Experimental data: US20260327291 (published 2026)

Molecular target: 2019-nCoV N protein (SARS-CoV-2, UniProt P0DTC9)
Assay: BLI

B1: WT anti-N antibody (antibody, V domains shown)
VH: QIQLVQSGPELKKPGETVKISCKASGFTFTDYAMNWVKQAPGKGLKWMGWLNTYSGEPTYAEDFKGRFAFSLETSASTAYLQINNLKNEDTATYFCARTAILRSYFDYWGQGTTLTVSS
VL: DIVMTQSHKFMSTSVGDRVSITCKASEDLSTALAWCQQKPGQSPKLLIYWGSTRHSGVPDRFTGIRSGTDYTLTISSVQAEDLALYYCQQHWSTPLTFGAGTKLELKR
Q: B1 was tested. Which Kd did it give?
A: 7.25 nM
